Source: the supplement of paper PMC9170038

System: MS2 coat protein
Assay: apparent KD of MS2 coat protein; designed switch direction (-1 OFF switch, 1 ON switch): -1; higher = weaker reporter binding
Method in brief: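 SNAP-549-labelled MS2 coat protein was titrated, doubling from 0.7 or 1.5 nM to 3 µM, over designed RNA switches transcribed on Illumina chips by stalled E. coli RNA polymerase. Runs were done without input, with 200 uM small-molecule ligand, or with an oligonucleotide input. Apparent KD is the per-design median over clusters of curve-fitted normalised fluorescence.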

[1] = Eterna round: R95, input ligand: FMN 200 uM
[2] = Eterna round: R95, input ligand: microRNA oligo, concentration not stated
[3] = Eterna round: R95, input ligand: none
[4] = input ligand: microRNA oligo, concentration not stated

## UAUGGUUAAGUCAGGAUAUACAAAUAGAAAUCUGAGUAGAAGGGACAUGAGGAUCACCCAUGUAUGGUAGUGUU [Ex4 #57] (Eterna round: R97, puzzle: Brourd's mod of Exclusion 4)
Input ligand: FMN 200 uM
  apparent KD of MS2 coat protein: 79 nM
Input ligand: none
  apparent KD of MS2 coat protein: 74.3 nM

## UAUGGUUAAGUCAGGAUAUGCACGCAGAUUACAAUGCAGAAGGGACAUGAGGAUCACCCAUGUACACUCGUGUU [Ex4 #80] (Eterna round: R97, puzzle: Brourd's mod of Exclusion 4)
Input ligand: FMN 200 uM
  apparent KD of MS2 coat protein: 40.7 nM
Input ligand: none
  apparent KD of MS2 coat protein: 31.8 nM

## UAUGGUUAAGUCAGGAUAUGCUCGUAGAGGUCUAUGCAGAAGGGACAUGAGGAUCACCCAUGUAAAGUCGUGUU [Ex4 #70] (Eterna round: R97, puzzle: Brourd's mod of Exclusion 4)
Input ligand: FMN 200 uM
  apparent KD of MS2 coat protein: 51.5 nM
Input ligand: none
  apparent KD of MS2 coat protein: 25.1 nM

## UAUGUCGACAAGGAUAUUUGCGCAAACGACCACAAAGAAGGUGUCACAUGAGGAUCACCCAUGUGGUGUGGGCC [Eternabot (L1) Solution 83] (Eterna round: R97, puzzle: Exclusion 6)
Input ligand: FMN 200 uM
  apparent KD of MS2 coat protein: 202 nM
Input ligand: none
  apparent KD of MS2 coat protein: 209 nM

## UAUUAGCAAGCAAAUGGGUACAUGAGGAUCACCCAUGUGCUCGUCUUAUAAGGUACUGUGACGAAAGUCACGGUACC [Eli 91 v35] (Eterna round: R97, puzzle: Sensor, turn-off variant 1)
Input ligand: FMN 200 uM
  apparent KD of MS2 coat protein: 24.6 nM
Input ligand: none
  apparent KD of MS2 coat protein: 22.5 nM

## UAUUAGCAAGCAACUGGGUACAUGAGGAUCACCCAUGUGCUCGUCUUAUAAGGUACUGUUACGAAAGUCACGGUACC [mod--Eli12] (Eterna round: R97, puzzle: Sensor, turn-off variant 1)
Input ligand: FMN 200 uM
  apparent KD of MS2 coat protein: 17.3 nM
Input ligand: none
  apparent KD of MS2 coat protein: 15.9 nM

## UAUUAGCAAGCACGAUCCCACAUGAGGAUCACCCAUGUGCUCGUCUUAUAAGGUACUGUGACGAAAGUCACGGUACC [Sensor 3, v1 - 94] (puzzle: Sensor v3, turn-off variant 1)
[1]
  apparent KD of MS2 coat protein: 64.2 nM
[2]
  apparent KD of MS2 coat protein: 847 nM
[3]
  apparent KD of MS2 coat protein: 75.9 nM

## UAUUAGCAAGCAUGAUCCCACAUGAGGAUCACCCAUGUGCUCGUCUUAUAAGGUACUGUGACGAAAGUCACGGUACC [Sensor 3, v1 - 97] (puzzle: Sensor v3, turn-off variant 1)
[1]
  apparent KD of MS2 coat protein: 195 nM
[2]
  apparent KD of MS2 coat protein: 89.4 nM
[3]
  apparent KD of MS2 coat protein: 218 nM

## UAUUAGCAAGCGAGAUCCCACAUGAGGAUCACCCAUGUAACAUCCAGAAUUACUGGGUGCAAAGCUCGUCUUAUAUA [Winner reversed engineered 3] (Eterna round: R97, puzzle: Sensor, turn-off variant 1)
Input ligand: FMN 200 uM
  apparent KD of MS2 coat protein: 434 nM
Input ligand: none
  apparent KD of MS2 coat protein: 496 nM

## UAUUAGCAAGCGAGAUCCCACAUGAGGAUCACCCAUGUAAGCAUCCAGAAUUACUGGGUGCAAAAGCUCGUCUUAUA [Winner reversed engineered 5] (Eterna round: R97, puzzle: Sensor, turn-off variant 1)
Input ligand: FMN 200 uM
  apparent KD of MS2 coat protein: 29.7 nM
Input ligand: none
  apparent KD of MS2 coat protein: 31 nM

## UAUUAGCAAGCGAGAUCCCACAUGAGGAUCACCCAUGUGCUCGUCGCAUCCAGAAUUACUGGGUGCGCUCGUCUUAU [Winner reversed engineered 15] (Eterna round: R97, puzzle: Sensor, turn-off variant 1)
Input ligand: FMN 200 uM
  apparent KD of MS2 coat protein: 23.8 nM
Input ligand: none
  apparent KD of MS2 coat protein: 23.7 nM

## UAUUAGCAAGCGAGAUCCCACAUGAGGAUCACCCAUGUGCUCGUCUUAUAAAGUACUGUGACGAAAGUCACGGUACA [Sensor 3, v1 - 91 v3] (Eterna round: R97, puzzle: Sensor, turn-off variant 1)
Input ligand: FMN 200 uM
  apparent KD of MS2 coat protein: 14.3 nM
Input ligand: none
  apparent KD of MS2 coat protein: 12.8 nM

## UAUUAGCAAGCGAGAUCCCACAUGAGGAUCACCCAUGUGCUCGUCUUAUAAAGUACUGUGACGAAAGUCACGGUACG [Mat - Sensor, turn-off var - Eli Mod - D10] (Eterna round: R97, puzzle: Sensor, turn-off variant 1)
Input ligand: FMN 200 uM
  apparent KD of MS2 coat protein: 15.1 nM
Input ligand: none
  apparent KD of MS2 coat protein: 14.6 nM

## UAUUAGCAAGCGAGAUCCCACAUGAGGAUCACCCAUGUGCUCGUCUUAUAAGGUACUGUGACGAUAGUCACGGUACC [Mat - Sensor, turn-off var - Eli Mod - D16] (Eterna round: R97, puzzle: Sensor, turn-off variant 1)
Input ligand: FMN 200 uM
  apparent KD of MS2 coat protein: 12.9 nM
Input ligand: none
  apparent KD of MS2 coat protein: 14.8 nM

## UAUUAGCAAGCGAGUGGGUACAUGAGGAUCACCCAUGUGCUCGUCUUAUAAGGUACUGUGACGAAAGUCACGGUACC [Eli 91 v33] (Eterna round: R97, puzzle: Sensor, turn-off variant 1)
Input ligand: FMN 200 uM
  apparent KD of MS2 coat protein: 16.1 nM
Input ligand: none
  apparent KD of MS2 coat protein: 13.4 nM

## UAUUAGCAAGUAAGGUCCCACAUGAGGAUCACCCAUGUGCUCGUCUCCUCAGGUACGGAGCGGAAGCUCCCGAUAUG [Sensor-V1 #94] (Eterna round: R97, puzzle: Sensor, turn-off variant 1)
Input ligand: FMN 200 uM
  apparent KD of MS2 coat protein: 87 nM
Input ligand: none
  apparent KD of MS2 coat protein: 102 nM

## UAUUAGCAAGUAAGGUCCCACAUGAGGAUCACCCAUGUGCUCGUCUCCUCAGGUACGGAGUGGAAACUCCCGAUAUG [Sensor-V1 #93] (Eterna round: R97, puzzle: Sensor, turn-off variant 1)
Input ligand: FMN 200 uM
  apparent KD of MS2 coat protein: 84.7 nM
Input ligand: none
  apparent KD of MS2 coat protein: 76 nM

## UAUUAGCAAGUGAGAUCCCACAUGAGGAUCACCCAUGUGCUCGUCUUAUAACGUACUGUGACGAAAGUCACGGUACG [Sensor-V1 #81] (Eterna round: R97, puzzle: Sensor, turn-off variant 1)
Input ligand: FMN 200 uM
  apparent KD of MS2 coat protein: 52.9 nM
Input ligand: none
  apparent KD of MS2 coat protein: 47.2 nM

## UAUUAGCAAGUGAGAUCCCACAUGAGGAUCACCCAUGUGCUCGUCUUAUAACGUACUGUGAGGAAACUCACGGUACG [Sensor-V1 #83] (Eterna round: R97, puzzle: Sensor, turn-off variant 1)
Input ligand: FMN 200 uM
  apparent KD of MS2 coat protein: 47.6 nM
Input ligand: none
  apparent KD of MS2 coat protein: 51.2 nM

## UAUUAGUAAGGAUAUGAGCCGUAGGACGAAAGUCCUACGGCUCAGAAGGUACAUGAGGAUCACCCAUGUUCAUU [Mod of Fisker 5 - Jieux - Exclusion 4] (Eterna round: R97, puzzle: Exclusion 4)
Input ligand: FMN 200 uM
  apparent KD of MS2 coat protein: 17.7 nM
Input ligand: none
  apparent KD of MS2 coat protein: 15.9 nM

## UAUUGCGAGUGAGGAUAUGACAUGAGGAUCACCCAUGUAAAGGGAGUUGGCUAUAUAGCAAGUUUUCAGAAGGCACUACUGUAU [JR_ExcNG2_Sub007] (Eterna round: R96, puzzle: Exclusion NG 2)
Input ligand: FMN 200 uM
  apparent KD of MS2 coat protein: 114 nM
[4]
  apparent KD of MS2 coat protein: 48.8 nM
Input ligand: none
  apparent KD of MS2 coat protein: 66.4 nM

## UAUUUAGCAAGCAGAUCCCACAUGAGGAUCACCCAUGUUCUCUGAAAGUACAGAAUUACUGUACUUGCUCGUCUUAU [Winner reversed engineered 34] (Eterna round: R97, puzzle: Sensor, turn-off variant 1)
Input ligand: FMN 200 uM
  apparent KD of MS2 coat protein: 210 nM
Input ligand: none
  apparent KD of MS2 coat protein: 237 nM

## UCAACGCAAGGAUAUACUUGCGGUGAUGUUCGAAAUCUUCUACUUGAGGAUCACCCAAGUAGAAGGUGCGGUGA [jl-ex2.4.65 ViennaUCT mod] (Eterna round: R97, puzzle: Exclusion 2)
Input ligand: FMN 200 uM
  apparent KD of MS2 coat protein: 12.8 nM
Input ligand: none
  apparent KD of MS2 coat protein: 12.9 nM

## UCAAGUUUAGAGGAUAUAUAAUAUUUAUUAACUAUAGAAGGCUAUACAUGAGGAUCACCCAUGUAUAUUGGGAU [JR_Ex6_Sub066] (Eterna round: R97, puzzle: Exclusion 6)
Input ligand: FMN 200 uM
  apparent KD of MS2 coat protein: 40.6 nM
Input ligand: none
  apparent KD of MS2 coat protein: 26.1 nM

## UCAAUGCGAGGAUAUACGCACAAUUACAUGAGGAUCACCCAUGUCAUGAACUUUGGUAAGGUAGAAGGCGCUCCGU [Eternabot (L1) Solution 13] (Eterna round: R97, puzzle: Exclusion 5)
Input ligand: FMN 200 uM
  apparent KD of MS2 coat protein: 32.4 nM
Input ligand: none
  apparent KD of MS2 coat protein: 41 nM

## UCAAUUUUGACAGGAUAUAGUUUUUGUUUCUCUCUAGAAGGGUCUGUGUACAUGAGGAUCACCCAUGUUCUUCUUAUUUAUAUU [JR_ExcNG1_Sub014] (Eterna round: R96, puzzle: Exclusion NG 1)
Input ligand: FMN 200 uM
  apparent KD of MS2 coat protein: 28.4 nM
[4]
  apparent KD of MS2 coat protein: 28.6 nM
Input ligand: none
  apparent KD of MS2 coat protein: 36.7 nM

## UCACAGUGAGGAUAUUUAAAAUCGGAACCAGUUACCCGGAUGAAGAAGGCACAUGAGGAUCACCCAUGUGGACG [Eternabot (L2) Solution 14] (Eterna round: R97, puzzle: Exclusion 4)
Input ligand: FMN 200 uM
  apparent KD of MS2 coat protein: 16.7 nM
Input ligand: none
  apparent KD of MS2 coat protein: 15.3 nM

## UCACCGCAAGGAUAUACUUGCGGUGAUGCUCGAAACUUUCUACUUGAGGAUCACCCAAGUAGAAGGUGCGGUGA [jl-ex2.4.68 ViennaUCT mod] (Eterna round: R97, puzzle: Exclusion 2)
Input ligand: FMN 200 uM
  apparent KD of MS2 coat protein: 12.1 nM
Input ligand: none
  apparent KD of MS2 coat protein: 13.1 nM

## UCACGGGACUGAGGAUAUACAUCAACCAUGGUUGUAGAAGGCAGAAGGUUGGAUCAUACACUAAACAUGAGGAUCACCCAUGUU [JR_ExcNG1_Sub029] (Eterna round: R96, puzzle: Exclusion NG 1)
Input ligand: FMN 200 uM
  apparent KD of MS2 coat protein: 17.7 nM
[4]
  apparent KD of MS2 coat protein: 16.8 nM
Input ligand: none
  apparent KD of MS2 coat protein: 21.6 nM
